B1: SPSB4 (parent)
chain: LDMDEGTLSFIVDGQYLGVAFRGL

Variants of: B1
Experiment: protein stability index of a GFP-peptide fusion (GPS, HEK-293T) (PSI 1-6); higher = more stable
Conditions: c terminus: a fixed tail appended
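Note: lentivirally expressed fusions sorted by FACS into six bins by GFP to DsRed ratio, PSI derived from sequencing read proportions per bin multiplied by bin number.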

**Q.** For LDMDEGTLSFIVDGQYLGIAFRGL [V19I], which protein stability index is on record?
**A.** 2.77

**Q.** Which protein stability index does the source give for LDMDEGTLSFIVDGQYLGKAFRGL [V19K] here?
**A.** 2.1

**Q.** For LDMDEGTLSFIVDGQYLGLAFRGL [V19L], which protein stability index is on record?
**A.** 1.94

**Q.** For LDMDEGTLSFIVDGQYLGMAFRGL [V19M], which protein stability index is on record?
**A.** 2.32

**Q.** For LDMDEGTLSFIVDGQYLGNAFRGL [V19N], which protein stability index is on record?
**A.** 1.98

**Q.** With LDMDEGTLSFIVDGQYLGPAFRGL [V19P] as the variant, how does the protein stability index read?
**A.** 2.43

**Q.** With LDMDEGTLSFIVDGQYLGQAFRGL [V19Q] as the variant, how does the protein stability index read?
**A.** 1.94

**Q.** With LDMDEGTLSFIVDGQYLGRAFRGL [V19R] as the variant, how does the protein stability index read?
**A.** 2.04

**Q.** For LDMDEGTLSFIVDGQYLGSAFRGL [V19S], which protein stability index is on record?
**A.** 1.66

**Q.** Which protein stability index does the source give for LDMDEGTLSFIVDGQYLGTAFRGL [V19T] here?
**A.** 2.1

**Q.** Which protein stability index does the source give for LDMDEGTLSFIVDGQYLGWAFRGL [V19W] here?
**A.** 2.04

**Q.** With LDMDEGTLSFIVDGQYLGYAFRGL [V19Y] as the variant, how does the protein stability index read?
**A.** 2.49

**Q.** Which protein stability index does the source give for LDMDEGTLSFIVDGQYLGVCFRGL [A20C] here?
**A.** 2.13

**Q.** For LDMDEGTLSFIVDGQYLGVDFRGL [A20D], which protein stability index is on record?
**A.** 1.63

**Q.** Which protein stability index does the source give for LDMDEGTLSFIVDGQYLGVEFRGL [A20E] here?
**A.** 1.88

**Q.** For LDMDEGTLSFIVDGQYLGVGFRGL [A20G], which protein stability index is on record?
**A.** 2.38

**Q.** With LDMDEGTLSFIVDGQYLGVHFRGL [A20H] as the variant, how does the protein stability index read?
**A.** 1.89

**Q.** Which protein stability index does the source give for LDMDEGTLSFIVDGQYLGVIFRGL [A20I] here?
**A.** 2.13

**Q.** For LDMDEGTLSFIVDGQYLGVKFRGL [A20K], which protein stability index is on record?
**A.** 2.11

**Q.** For LDMDEGTLSFIVDGQYLGVLFRGL [A20L], which protein stability index is on record?
**A.** 2.51

**Q.** For LDMDEGTLSFIVDGQYLGVMFRGL [A20M], which protein stability index is on record?
**A.** 2.48

**Q.** With LDMDEGTLSFIVDGQYLGVNFRGL [A20N] as the variant, how does the protein stability index read?
**A.** 1.68

**Q.** Which protein stability index does the source give for LDMDEGTLSFIVDGQYLGVPFRGL [A20P] here?
**A.** 1.55

**Q.** With LDMDEGTLSFIVDGQYLGVQFRGL [A20Q] as the variant, how does the protein stability index read?
**A.** 1.86

**Q.** For LDMDEGTLSFIVDGQYLGVRFRGL [A20R], which protein stability index is on record?
**A.** 2.47

**Q.** Which protein stability index does the source give for LDMDEGTLSFIVDGQYLGVSFRGL [A20S] here?
**A.** 2

**Q.** With LDMDEGTLSFIVDGQYLGVTFRGL [A20T] as the variant, how does the protein stability index read?
**A.** 2.03

**Q.** Which protein stability index does the source give for LDMDEGTLSFIVDGQYLGVVFRGL [A20V] here?
**A.** 3.1

**Q.** Which protein stability index does the source give for LDMDEGTLSFIVDGQYLGVWFRGL [A20W] here?
**A.** 2.61

**Q.** For LDMDEGTLSFIVDGQYLGVYFRGL [A20Y], which protein stability index is on record?
**A.** 2.4

**Q.** With LDMDEGTLSFIVDGQYLGVAARGL [F21A] as the variant, how does the protein stability index read?
**A.** 1.7

**Q.** For LDMDEGTLSFIVDGQYLGVACRGL [F21C], which protein stability index is on record?
**A.** 1.62

**Q.** With LDMDEGTLSFIVDGQYLGVADRGL [F21D] as the variant, how does the protein stability index read?
**A.** 2.31

**Q.** With LDMDEGTLSFIVDGQYLGVAERGL [F21E] as the variant, how does the protein stability index read?
**A.** 1.96

**Q.** For LDMDEGTLSFIVDGQYLGVAGRGL [F21G], which protein stability index is on record?
**A.** 1.76

**Q.** For LDMDEGTLSFIVDGQYLGVAHRGL [F21H], which protein stability index is on record?
**A.** 1.72

**Q.** For LDMDEGTLSFIVDGQYLGVAIRGL [F21I], which protein stability index is on record?
**A.** 2.95

**Q.** With LDMDEGTLSFIVDGQYLGVAKRGL [F21K] as the variant, how does the protein stability index read?
**A.** 2.39

**Q.** For LDMDEGTLSFIVDGQYLGVALRGL [F21L], which protein stability index is on record?
**A.** 1.8

**Q.** For LDMDEGTLSFIVDGQYLGVAMRGL [F21M], which protein stability index is on record?
**A.** 1.43

**Q.** With LDMDEGTLSFIVDGQYLGVANRGL [F21N] as the variant, how does the protein stability index read?
**A.** 1.98

**Q.** With LDMDEGTLSFIVDGQYLGVAPRGL [F21P] as the variant, how does the protein stability index read?
**A.** 1.89

**Q.** With LDMDEGTLSFIVDGQYLGVAQRGL [F21Q] as the variant, how does the protein stability index read?
**A.** 1.98

**Q.** With LDMDEGTLSFIVDGQYLGVARRGL [F21R] as the variant, how does the protein stability index read?
**A.** 1.65

**Q.** For LDMDEGTLSFIVDGQYLGVASRGL [F21S], which protein stability index is on record?
**A.** 2.18

**Q.** Which protein stability index does the source give for LDMDEGTLSFIVDGQYLGVATRGL [F21T] here?
**A.** 2.04

**Q.** Which protein stability index does the source give for LDMDEGTLSFIVDGQYLGVAVRGL [F21V] here?
**A.** 2.46

**Q.** Which protein stability index does the source give for LDMDEGTLSFIVDGQYLGVAWRGL [F21W] here?
**A.** 2.48

**Q.** Which protein stability index does the source give for LDMDEGTLSFIVDGQYLGVAYRGL [F21Y] here?
**A.** 2.27

**Q.** For LDMDEGTLSFIVDGQYLGVAFAGL [R22A], which protein stability index is on record?
**A.** 3

**Q.** Which protein stability index does the source give for LDMDEGTLSFIVDGQYLGVAFCGL [R22C] here?
**A.** 2.55

**Q.** With LDMDEGTLSFIVDGQYLGVAFDGL [R22D] as the variant, how does the protein stability index read?
**A.** 2.41

**Q.** Which protein stability index does the source give for LDMDEGTLSFIVDGQYLGVAFEGL [R22E] here?
**A.** 2.05

**Q.** For LDMDEGTLSFIVDGQYLGVAFFGL [R22F], which protein stability index is on record?
**A.** 2.57

**Q.** Which protein stability index does the source give for LDMDEGTLSFIVDGQYLGVAFGGL [R22G] here?
**A.** 2.69

**Q.** Which protein stability index does the source give for LDMDEGTLSFIVDGQYLGVAFHGL [R22H] here?
**A.** 3.23

**Q.** Which protein stability index does the source give for LDMDEGTLSFIVDGQYLGVAFIGL [R22I] here?
**A.** 2.24

**Q.** For LDMDEGTLSFIVDGQYLGVAFKGL [R22K], which protein stability index is on record?
**A.** 2.01

**Q.** For LDMDEGTLSFIVDGQYLGVAFLGL [R22L], which protein stability index is on record?
**A.** 1.81

**Q.** For LDMDEGTLSFIVDGQYLGVAFMGL [R22M], which protein stability index is on record?
**A.** 1.99

**Q.** Which protein stability index does the source give for LDMDEGTLSFIVDGQYLGVAFNGL [R22N] here?
**A.** 2.46

**Q.** For LDMDEGTLSFIVDGQYLGVAFPGL [R22P], which protein stability index is on record?
**A.** 2.25

**Q.** Which protein stability index does the source give for LDMDEGTLSFIVDGQYLGVAFQGL [R22Q] here?
**A.** 2.1

**Q.** For LDMDEGTLSFIVDGQYLGVAFSGL [R22S], which protein stability index is on record?
**A.** 2.46

**Q.** Which protein stability index does the source give for LDMDEGTLSFIVDGQYLGVAFTGL [R22T] here?
**A.** 4.1

**Q.** Which protein stability index does the source give for LDMDEGTLSFIVDGQYLGVAFWGL [R22W] here?
**A.** 1.31

**Q.** For LDMDEGTLSFIVDGQYLGVAFYGL [R22Y], which protein stability index is on record?
**A.** 3.56

**Q.** For LDMDEGTLSFIVDGQYLGVAFRAL [G23A], which protein stability index is on record?
**A.** 1.31

**Q.** For LDMDEGTLSFIVDGQYLGVAFRCL [G23C], which protein stability index is on record?
**A.** 1.86

**Q.** For LDMDEGTLSFIVDGQYLGVAFRDL [G23D], which protein stability index is on record?
**A.** 1.84

**Q.** Which protein stability index does the source give for LDMDEGTLSFIVDGQYLGVAFREL [G23E] here?
**A.** 2.42

**Q.** For LDMDEGTLSFIVDGQYLGVAFRFL [G23F], which protein stability index is on record?
**A.** 1.96

**Q.** With LDMDEGTLSFIVDGQYLGVAFRHL [G23H] as the variant, how does the protein stability index read?
**A.** 2.5

**Q.** For LDMDEGTLSFIVDGQYLGVAFRIL [G23I], which protein stability index is on record?
**A.** 2.48

**Q.** Which protein stability index does the source give for LDMDEGTLSFIVDGQYLGVAFRKL [G23K] here?
**A.** 1.97

**Q.** For LDMDEGTLSFIVDGQYLGVAFRML [G23M], which protein stability index is on record?
**A.** 2.84

**Q.** Which protein stability index does the source give for LDMDEGTLSFIVDGQYLGVAFRNL [G23N] here?
**A.** 2.38

**Q.** With LDMDEGTLSFIVDGQYLGVAFRPL [G23P] as the variant, how does the protein stability index read?
**A.** 2.1

**Q.** Which protein stability index does the source give for LDMDEGTLSFIVDGQYLGVAFRQL [G23Q] here?
**A.** 1.47

**Q.** For LDMDEGTLSFIVDGQYLGVAFRRL [G23R], which protein stability index is on record?
**A.** 1.88

**Q.** Which protein stability index does the source give for LDMDEGTLSFIVDGQYLGVAFRSL [G23S] here?
**A.** 3.28

**Q.** For LDMDEGTLSFIVDGQYLGVAFRTL [G23T], which protein stability index is on record?
**A.** 2.5

**Q.** With LDMDEGTLSFIVDGQYLGVAFRVL [G23V] as the variant, how does the protein stability index read?
**A.** 3.48

**Q.** Which protein stability index does the source give for LDMDEGTLSFIVDGQYLGVAFRWL [G23W] here?
**A.** 4

**Q.** Which protein stability index does the source give for LDMDEGTLSFIVDGQYLGVAFRGA [L24A] here?
**A.** 1.22

**Q.** With LDMDEGTLSFIVDGQYLGVAFRGC [L24C] as the variant, how does the protein stability index read?
**A.** 2.43

**Q.** With LDMDEGTLSFIVDGQYLGVAFRGD [L24D] as the variant, how does the protein stability index read?
**A.** 1.78

**Q.** With LDMDEGTLSFIVDGQYLGVAFRGE [L24E] as the variant, how does the protein stability index read?
**A.** 1.48

**Q.** For LDMDEGTLSFIVDGQYLGVAFRGF [L24F], which protein stability index is on record?
**A.** 3.21

**Q.** With LDMDEGTLSFIVDGQYLGVAFRGG [L24G] as the variant, how does the protein stability index read?
**A.** 1.69

**Q.** Which protein stability index does the source give for LDMDEGTLSFIVDGQYLGVAFRGH [L24H] here?
**A.** 3.29

**Q.** For LDMDEGTLSFIVDGQYLGVAFRGI [L24I], which protein stability index is on record?
**A.** 3.11

**Q.** With LDMDEGTLSFIVDGQYLGVAFRGK [L24K] as the variant, how does the protein stability index read?
**A.** 1.65

**Q.** For LDMDEGTLSFIVDGQYLGVAFRGM [L24M], which protein stability index is on record?
**A.** 1.84

Reference: the supplement of paper PMC10567573
